According to article PMC3549491, “Structural Basis of the Intracellular Sorting of the SNARE VAMP7 by the AP3 Adaptor Complex” (Developmental Cell, 2012):
Values belong to the binder of their own block, whether it stands above or below them.

Key:
VAMP7 longin domain [1] = molecular target: T1, VAMP7 longin domain (UniProt P70280 1-120); assay: ITC
T1 chain: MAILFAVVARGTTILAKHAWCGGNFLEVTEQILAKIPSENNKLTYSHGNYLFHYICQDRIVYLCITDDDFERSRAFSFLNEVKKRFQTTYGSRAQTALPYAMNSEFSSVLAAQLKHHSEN

VAMP7 longin domain [2] = molecular target: T2, VAMP7 longin domain (UniProt P70280 1-120); assay: ITC; Microcal Auto-iTC200; VAMP7 longin domain in the cell at 0.15–0.2 mM, GST delta constructs at 0.8–1.2 mM titrated; 50 mM HEPES pH 7.4, 200 mM NaCl, 4 mM ß-mercaptoethanol; conditions: both partners purified
T2 construct: VAMP7 (Ti-VAMP), longin domain; also called VAMP7LD; VAMP longin domain
T2 sequence (looked up): T1 chain

[3] = molecular target: VAMP7 longin domain L43S/Y45S (UniProt P70280 1-120, L43S | Y45S); assay: ITC

Kd (VAMP7 longin domain [1]): > 300 µM
Binder: PFYIKSSPSPQKRYQDTPGVEHSPSVQIDLSVPLKVPGLPMSDQYVKLE (domain or fragment) [GST δ-adaptin (680–728) I702S/V704S]

Kd (VAMP7 longin domain [2]): 14 µM
Kd [3]: > 300 µM
B1: GST δ-adaptin (680–728) (domain or fragment, UniProt O14617-5 680-728, looked up)
chain: PFYIKSSPSPQKRYQDTPGVEHIPVVQIDLSVPLKVPGLPMSDQYVKLE
notes: source: Rosetta2(DE3)pLysS, purified (glutathione-Sepharose, Superdex 75)

Kd (VAMP7 longin domain [1]): > 300 µM
Binder: PFYIKSSPSPQKRYQDTPGVEHIPVVQIDSSVPSKVPGLPMSDQYVKLE (domain or fragment) [GST δ-adaptin (680–728) L709S/L713S]
